Source: article PMC4415972

Columns and labels:
[1] = molecular target: synaptic membrane proteins in SMPL Nanodiscs (immobilised on magnetic beads); test: ELISA; magnetic bead-based: SMPL Nanodiscs immobilised through the His tag of MSP on Dynabeads; PBS with 0.1% BSA and 25 mM imidazole; AβOs 1 h at 37°C; bound AβOs detected by NU2 antibody or through biotin (Vectastain) with colorimetric HRP substrate; nonspecific binding measured with excess ATA; Kd as Aβ monomer equivalent
[2] = molecular target: binding sites on cultured rat hippocampal neurons; test: immunostaining of cells or tissue; cultured rat hippocampal neurons; biotinylated STI 30 min at 37°C, then 100 nM AβOs 30 min at 37°C; AβOs detected with NU2, STI with a streptavidin conjugate; in the PIPLC experiment 100 nM fluorescent AβOs were seen directly after 1 h of 0.2 units/mL PIPLC

## biotin-labeled high MW AβOs (larger than 50 kDa) (from UniProt P05067 672-713; P05067 672-713) (peptide)
[1]
  increase in assay response relative to unfractionated AβOs: 80%

## biotinylated soybean trypsin inhibitor type II (from UniProt P01070 25-205) (natural protein)
[2]
  percent reduction of AβO binding: 87%
